Test results as given in US20210032312A1 (Janssen / Centocor, published 2021).
Where a chain is given by its changes, count along the chain named.

B1: P283AR9P1362_D2 (designed binder)
chain: LPAPKNLVVSRVTEDSARLSWQRPKSGFFDSFLIQYQESEKVGEAIVLTVPGSERSYDLTGLKPGTEYTVSIYGVDVKYDIDSRPISSNPLSAIFTT
notes: FN3 domain
B2: P283AR9P1362_H11 (designed binder)
chain: B1 chain with Q22P, R23K, P24I, K25Q, S26G, G27Q, F28H
notes: FN3 domain
B3: P283AR9P1362_B10 (designed binder)
chain: LPAPKNLVVSRVTEDSARLSWKRRWDSFDSFLIQYQESEKVGEAIVLTVPGSERSYDLTGLKPGTEYTVSIYGVDVEWFNGLPHHSNPLSAIFTT
notes: FN3 domain
B4: P282FR9P1361_H5 (designed binder)
chain: LPAPKNLVVSRVTEDSARLSWTAPDAAFDSFDIWYAEYGYPGEAIVLTVPGSERSYDLTGLKPGTEYDVAISGVKGGPRSYPLSAIFTT
notes: FN3 domain
B5: P282FR9P1361_F3 (designed binder)
chain: B4 chain with V74A
notes: FN3 domain
B6: P282FR9P1361_F1 (designed binder)
chain: B4 chain with D32G, P41S, S72W, P78V
notes: FN3 domain
B7: P282FR9P1361_F2 (designed binder)
chain: B4 chain with V74I
notes: FN3 domain
B8: P282FR9P1361_C7 (designed binder)
chain: B4 chain with D32G, A36H, Y40G, P41D, S72W, P78D, R79V
notes: FN3 domain
B9: P282FR9P1361_A3 (designed binder)
chain: B4 chain with S72V, P78N
notes: FN3 domain
B10: P282FR9P1361_D3 (designed binder)
chain: B4 chain with K62N
notes: FN3 domain
B11: P282FR9P1361_H4 (designed binder)
chain: B4 chain with D32G, P41S, S72Y, P78S, R79P
notes: FN3 domain
B12: P282FR9P1361_F11 (designed binder)
chain: B4 chain with D32G, A36R, Y40G, P41S, S72W, P78V
notes: FN3 domain
B13: P282FR9P1361_E12 (designed binder)
chain: LPAPKNLVVSRVTEDSARLSWTAPDAAFDSLGITYWESPYAGEAIVLTVPGSERSYDLTGLKPGTEYGVFILGVKGGYPSAPLSAIFTT
notes: FN3 domain
B14: P282FR9P1361_G9 (designed binder)
chain: B13 chain with L31F
notes: FN3 domain
B15: P282FR9P1361_F7 (designed binder)
chain: LPAPKNLVVSRVTEDSARLSWTAPDAAFDSFPIWYREYATGEAIVLTVPGSERSYDLTGLKPGTEYDVVITGVKGGYPSYPLSAIFTT
notes: FN3 domain
B16: P282ER9P1360_F11 (designed binder)
chain: LPAPKNLVVSRVTEDSARLSWIAPDAAFDSFSIAYVEAELVGEAIQLVVPGSERSYDLTGLKPGTEYWVVILGVKGGNPSNPLGASFTT
notes: FN3 domain
B17: P282ER9P1360_H3 (designed binder)
chain: B16 chain with I22T
notes: FN3 domain
B18: P283AR9P1362_C6 (designed binder)
chain: LPAPKNLVVSRVTEDSARLSWYPSDPPFDSFLIQYQESEKVGEAIVLTVPGSERSYDLTGLKPGTEYTVSIYGVPNYHSRRSYYYSNPLSAIFTT
notes: FN3 domain
B19: P283AR9P1362_B2 (designed binder)
chain: LPAPKNLVVSRVTEDSARLSWAKHPNSFDSFLIQYQESEKVGEAIVLTVPGSERSYDLTGLKPGTEYTVSIYGVDVVVNELNNPLFSNPLSAIFTT
notes: FN3 domain
B20: P282ER9P1360_H10 (designed binder)
chain: LPAPKNLVVSRVTEDSARLSWTAPDAAFDSFEIYYPEWPFAGEAIGLPVPGSERSYDLTGLKPGTEYFVVIYGVKGGELSEPLTAQFTT
notes: FN3 domain
B21: P282ER9P1360_H2 (designed binder)
chain: LPAPKNLVVSRVTEDSARLSWTAPDAAFDSFSIAYVEAELVGEAIQLVVPGSERSYDLTGLKPGTEYWVVILGVKGGNPSNPLGASFTTT
notes: FN3 domain
B22: P282ER9P1360_G10 (designed binder)
chain: LPAPKNLVVSRVTEDSARLSWTAPDAAFDSFAIWYVEQHPFGEAIPLFVPGSERSYDLTGLKPGTEYTVGIRGVKGGNFSTPLIAHFTT
notes: FN3 domain

What follows are binders tested against T1, In house human CD8A-Fc (human, UniProt P01732 22-182, limits assumed) (assay: SPR (ProteOn), captured hCD8A-Fc).
T1 construct: Captured on goat anti-human Fc on a ProteOn GLC chip; also called hCD8A-Fc; recombinant human CD8 alpha; not shown: linker with flag (and polyhistidine) tag and Fc of human IgG1
T1 sequence (P01732 22-182 limits assumed): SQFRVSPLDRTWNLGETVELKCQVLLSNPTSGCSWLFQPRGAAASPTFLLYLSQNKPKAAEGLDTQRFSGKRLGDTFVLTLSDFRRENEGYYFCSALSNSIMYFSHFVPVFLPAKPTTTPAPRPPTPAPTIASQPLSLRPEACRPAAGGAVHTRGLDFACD

koff	Binder
0.000253 s⁻¹	B1
0.00018 s⁻¹	B2
0.000139 s⁻¹	B3
0.00577 s⁻¹	B4
0.0107 s⁻¹	B5
0.00126 s⁻¹	B6
0.00496 s⁻¹	B7
0.00224 s⁻¹	B8
0.000757 s⁻¹	B9
0.00502 s⁻¹	B10
0.000317 s⁻¹	B11
0.00213 s⁻¹	B12
0.00109 s⁻¹	B13
0.00653 s⁻¹	B14
0.00114 s⁻¹	B15
0.000225 s⁻¹	B16
0.000242 s⁻¹	B17
0.00109 s⁻¹	B18
0.00016 s⁻¹	B19
0.00104 s⁻¹	B20
0.000269 s⁻¹	B21
0.00207 s⁻¹	B22

These binders were tested against T2, human CD8 alpha (CD8A) on primary human CD8+ T cells (human, UniProt P01732 22-235) (assay: flow cytometry, human CD8+ T cells, 2 uM FN3).
T2 construct: whole, on cells; also called hCD8A
T2 sequence (P01732 22-235): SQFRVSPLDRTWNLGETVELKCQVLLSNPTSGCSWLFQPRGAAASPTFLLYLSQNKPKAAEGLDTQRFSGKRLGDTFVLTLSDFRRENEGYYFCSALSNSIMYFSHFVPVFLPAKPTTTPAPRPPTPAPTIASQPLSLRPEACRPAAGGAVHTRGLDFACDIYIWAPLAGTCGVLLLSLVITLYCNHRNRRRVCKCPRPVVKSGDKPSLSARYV

Human T-cell Binding 2 uM (MFI)	Binder
8650 MFI	B1
5730 MFI	B2
15400 MFI	B3
5730 MFI	B4
5160 MFI	B5
5500 MFI	B6
4610 MFI	B7
8540 MFI	B8
7670 MFI	B9
6880 MFI	B10
13100 MFI	B11
2190 MFI	B12
15800 MFI	B13
859 MFI	B14
7000 MFI	B15
22400 MFI	B16
20000 MFI	B17
16000 MFI	B18
13600 MFI	B19
2510 MFI	B20
15200 MFI	B21
27000 MFI	B22

What follows are binders tested against T3, cynomolgus monkey CD8A on primary cynomolgus monkey CD8+ T cells (cynomolgus monkey, UniProt P01732 23-235 (human entry)) (assay: flow cytometry, cyno CD8+ T cells, 2 uM FN3).
T3 construct: also called Cyno CD8alpha
T3 sequence (P01732 other isoform, or with tags, fused parts or gaps limits assumed): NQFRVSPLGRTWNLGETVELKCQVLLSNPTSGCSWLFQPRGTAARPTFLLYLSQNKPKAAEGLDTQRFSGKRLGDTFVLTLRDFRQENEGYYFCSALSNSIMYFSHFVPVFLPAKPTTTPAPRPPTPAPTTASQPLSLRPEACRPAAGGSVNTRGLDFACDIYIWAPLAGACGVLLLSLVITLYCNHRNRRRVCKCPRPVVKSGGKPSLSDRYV

Cyno T-cell Binding 2 uM (MFI)	Binder
17200 MFI	B1
11600 MFI	B2
35700 MFI	B3
11800 MFI	B4
9710 MFI	B5
9870 MFI	B6
10900 MFI	B7
11600 MFI	B8
8480 MFI	B9
14800 MFI	B10
26300 MFI	B11
2290 MFI	B12
63500 MFI	B13
3750 MFI	B14
1700 MFI	B15
48700 MFI	B16
66000 MFI	B17
17500 MFI	B18
38800 MFI	B19
27100 MFI	B20
44600 MFI	B21
62700 MFI	B22

The binders below were run against T3, cynomolgus monkey CD8A on primary … (assay: flow cytometry, cyno CD8+ T cells, 0.2 uM FN3).

Cyno T-cell Binding 0.2 uM (MFI)	Binder
5330 MFI	B1
3660 MFI	B2
8380 MFI	B3
637 MFI	B4
513 MFI	B5
1390 MFI	B6
462 MFI	B7
896 MFI	B8
740 MFI	B9
764 MFI	B10
2500 MFI	B11
384 MFI	B12
15100 MFI	B13
666 MFI	B14
353 MFI	B15
4410 MFI	B16
6440 MFI	B17
5690 MFI	B18
6480 MFI	B19
1890 MFI	B20
4540 MFI	B21
22600 MFI	B22

These binders were tested against T2, human CD8 alpha (CD8A) on primary human … (assay: flow cytometry, human CD8+ T cells, 0.2 uM FN3).

Human T-cell Binding 0.2 uM (MFI)	Binder
2760 MFI	B1
2270 MFI	B2
3700 MFI	B3
698 MFI	B4
674 MFI	B5
801 MFI	B6
498 MFI	B7
1580 MFI	B8
1660 MFI	B9
1030 MFI	B10
3740 MFI	B11
382 MFI	B12
1130 MFI	B13
297 MFI	B14
1110 MFI	B15
3860 MFI	B16
4270 MFI	B17
4150 MFI	B18
3500 MFI	B19
506 MFI	B20
3480 MFI	B21
7050 MFI	B22
